Our source for the self-aminoacylation values is the supplement of paper PMC9233669.

Fewer inactive variants are shown than the library holds.

For one data set, the system named is biotinyl-Phe-oxazolone. The data set can be described thus: self-aminoacylation, catalytic enhancement (BFO) (fold over background); higher = more active; k-Seq, kA / k0A0; sequences stand for … in GGGAAUGGAUCCACAUCUACGAAUUC…UUCACUGCAGACUUGACGAAGCUG
In outline:
(§1)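 Each biotinyl-aminoacyl-oxazolone, at 2–1250 μM, was incubated with mutagenized RNA pools (0.43 μM) carrying a 21-nt variable region. The 50 μL reactions contained HEPES/NaCl/KCl/MgCl2/CaCl2 buffer with 5% acetonitrile at pH 6.9–7.0 and ran for 90 minutes at room temperature. After streptavidin capture, RNA was measured by qPCR in triplicate and by Illumina sequencing, and catalytic enhancement was calculated as median kA over the uncatalyzed rate from a pseudo-first-order fit of per-sequence fraction reacted.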

The test system of the next data set is biotinyl-Ile-oxazolone. The data set can be described thus: self-aminoacylation, catalytic enhancement (BIO) (fold over background); higher = more active; k-Seq, kA / k0A0; sequences stand for … in GGGAAUGGAUCCACAUCUACGAAUUC…UUCACUGCAGACUUGACGAAGCUG
In outline:
as §1

A further data set relates to biotinyl-Met-oxazolone. The data set can be described thus: self-aminoacylation, catalytic enhancement (BMO) (fold over background); higher = more active; k-Seq, kA / k0A0; sequences stand for … in GGGAAUGGAUCCACAUCUACGAAUUC…UUCACUGCAGACUUGACGAAGCUG
In outline: as §1

The subject of another data set is biotinyl-Val-oxazolone. The data set can be described thus: self-aminoacylation, catalytic enhancement (BVO) (fold over background); higher = more active; k-Seq, kA / k0A0; sequences stand for … in GGGAAUGGAUCCACAUCUACGAAUUC…UUCACUGCAGACUUGACGAAGCUG
In outline:
as §1

In the next data set the test system is biotinyl-Leu-oxazolone. The data set can be described thus: self-aminoacylation, catalytic enhancement (BLO) (fold over background); higher = more active; k-Seq, kA / k0A0; sequences stand for … in GGGAAUGGAUCCACAUCUACGAAUUC…UUCACUGCAGACUUGACGAAGCUG
In outline: as §1

The next data set deals with biotinyl-Trp-oxazolone. Put plainly: self-aminoacylation, catalytic enhancement (BWO) (fold over background); higher = more active; k-Seq, kA / k0A0; sequences stand for … in GGGAAUGGAUCCACAUCUACGAAUUC…UUCACUGCAGACUUGACGAAGCUG
In outline:
as §1

For the sequence “AAGUUUACUAAUGGUCGCAAG [Fam3.1 aminoacylation ribozyme variant]”, the self-aminoacylation in the data set on biotinyl-Phe-oxazolone stood at 1.64; in the data set with biotinyl-Ile-oxazolone it was 1.59; in the data set on biotinyl-Met-oxazolone, 1.28; in the data set with biotinyl-Val-oxazolone, 1.1; in the data set with biotinyl-Leu-oxazolone it was 1.47; with biotinyl-Trp-oxazolone, 2.06.

Turning to “CCACACGUCAAGCAAGCGGUC [Fam1B.1 aminoacylation ribozyme variant]”, the self-aminoacylation with biotinyl-Phe-oxazolone came to 0.494; in the data set on biotinyl-Ile-oxazolone it was 0.826; with biotinyl-Met-oxazolone, 1.24; in the data set with biotinyl-Val-oxazolone, 1.57; with biotinyl-Leu-oxazolone, 1.19; with biotinyl-Trp-oxazolone it was 0.697.

As to “AAGUUUGCUACUCGUCGCAAG [Fam3.1 aminoacylation ribozyme variant]”, the self-aminoacylation in the data set on biotinyl-Phe-oxazolone was 0.598; in the data set with biotinyl-Ile-oxazolone, 0.823; with biotinyl-Met-oxazolone, 0.922; in the data set with biotinyl-Val-oxazolone, 1.04; with biotinyl-Leu-oxazolone it was 0.958; with biotinyl-Trp-oxazolone, 1.31.

Take “CCGCACUUCAAGCAAUCGCUC [Fam1B.1 aminoacylation ribozyme variant]”: the self-aminoacylation with biotinyl-Phe-oxazolone worked out at 6.76; in the data set with biotinyl-Ile-oxazolone it was 1.93; with biotinyl-Met-oxazolone it was 1.8; in the data set with biotinyl-Val-oxazolone it was 2.73; in the data set with biotinyl-Leu-oxazolone it was 2.14; with biotinyl-Trp-oxazolone it was 2.73.

Take “AUUACCCUGGGCAUCGAGUGC [Fam2.1 aminoacylation ribozyme variant]”: the self-aminoacylation in the data set on biotinyl-Phe-oxazolone was 0.527; in the data set on biotinyl-Ile-oxazolone, 1.1; with biotinyl-Met-oxazolone, 1.24; with biotinyl-Val-oxazolone, 0.979; in the data set on biotinyl-Leu-oxazolone it was 0.992; in the data set with biotinyl-Trp-oxazolone, 1.31.

As for “AUGACCCUGGUCAUCGAGCGA [Fam2.1 aminoacylation ribozyme variant]”, the self-aminoacylation amounted to 3.71 in the data set on biotinyl-Phe-oxazolone; 2.2 in the data set on biotinyl-Ile-oxazolone; 2.99 in the data set on biotinyl-Met-oxazolone; 2.31 with biotinyl-Val-oxazolone; 3.09 in the data set on biotinyl-Leu-oxazolone; 2.48 in the data set with biotinyl-Trp-oxazolone.

For the sequence “CUACUUCAACCAGUCGGUCUG [Fam1A.1 aminoacylation ribozyme variant]”, the self-aminoacylation with biotinyl-Phe-oxazolone stood at 0.542; with biotinyl-Ile-oxazolone, 0.712; with biotinyl-Met-oxazolone it was 0.662; in the data set on biotinyl-Val-oxazolone it was 0.833; in the data set on biotinyl-Leu-oxazolone, 0.788; with biotinyl-Trp-oxazolone, 0.564.

Consider “CUAUUUCACACAAUCGGUCUG [Fam1A.1 aminoacylation ribozyme variant]”, for which the self-aminoacylation in the data set with biotinyl-Phe-oxazolone amounted to 0.675; in the data set on biotinyl-Ile-oxazolone it was 0.88; in the data set with biotinyl-Met-oxazolone, 0.848; with biotinyl-Val-oxazolone, 0.774; in the data set on biotinyl-Leu-oxazolone, 0.766; in the data set with biotinyl-Trp-oxazolone, 0.617.

“CUACUUAAAACAAUCGGUAUG [Fam1A.1 aminoacylation ribozyme variant]”: the self-aminoacylation in the data set on biotinyl-Phe-oxazolone was 0.513; in the data set on biotinyl-Ile-oxazolone, 0.556; with biotinyl-Met-oxazolone it was 0.55; in the data set with biotinyl-Val-oxazolone it was 0.574; in the data set on biotinyl-Leu-oxazolone, 0.53; in the data set with biotinyl-Trp-oxazolone it was 0.339.

Turning to “GUUACCCUGUUCAUCGAGUGA [Fam2.1 aminoacylation ribozyme variant]”, the self-aminoacylation in the data set on biotinyl-Phe-oxazolone is 37.5; in the data set on biotinyl-Ile-oxazolone, 3.34; in the data set with biotinyl-Met-oxazolone it was 7; with biotinyl-Val-oxazolone it was 3.5; with biotinyl-Leu-oxazolone it was 7.51; in the data set with biotinyl-Trp-oxazolone, 8.4.

Turning to “CCACACUUCAAGGAACCGGUC [Fam1B.1 aminoacylation ribozyme variant]”, the self-aminoacylation with biotinyl-Phe-oxazolone is 1.2; with biotinyl-Ile-oxazolone, 1.04; in the data set with biotinyl-Met-oxazolone, 1.04; in the data set with biotinyl-Val-oxazolone, 0.945; in the data set on biotinyl-Leu-oxazolone, 0.984; in the data set with biotinyl-Trp-oxazolone, 0.809.

On to “UUUACCCUGGUCAUCGAGUGC [Fam2.1 aminoacylation ribozyme variant]”, for which the self-aminoacylation in the data set with biotinyl-Phe-oxazolone turned out to be 16.5; in the data set on biotinyl-Ile-oxazolone, 2.52; with biotinyl-Met-oxazolone it was 6.81; in the data set on biotinyl-Val-oxazolone, 2.99; in the data set on biotinyl-Leu-oxazolone it was 6.26; with biotinyl-Trp-oxazolone it was 5.5.

Regarding “AUUCACCUAGGACACCGGGUG [Fam2.2 aminoacylation ribozyme variant]”, the self-aminoacylation came out at 15.6 in the data set with biotinyl-Phe-oxazolone; 3.57 in the data set with biotinyl-Ile-oxazolone; 3.51 with biotinyl-Met-oxazolone; 3.63 in the data set with biotinyl-Val-oxazolone; 3.94 in the data set on biotinyl-Leu-oxazolone; 3.19 in the data set with biotinyl-Trp-oxazolone.

As to “CUACUUCAAUCAAUCGUUCUG [Fam1A.1 aminoacylation ribozyme variant]”, the self-aminoacylation worked out at 0.629 in the data set with biotinyl-Phe-oxazolone; 0.491 in the data set on biotinyl-Ile-oxazolone; 0.379 with biotinyl-Met-oxazolone; 0.596 in the data set with biotinyl-Val-oxazolone; 0.472 with biotinyl-Leu-oxazolone; 0.428 with biotinyl-Trp-oxazolone.

On to “UUUCUCCUAGGUCAUCGGGUG [Fam2.2 aminoacylation ribozyme variant]”, for which the self-aminoacylation in the data set on biotinyl-Phe-oxazolone stood at 32.5; with biotinyl-Ile-oxazolone it was 5.35; with biotinyl-Met-oxazolone, 7.74; with biotinyl-Val-oxazolone, 5.4; in the data set with biotinyl-Leu-oxazolone, 9.78; with biotinyl-Trp-oxazolone, 8.02.

For “CAAUUUCAAACAAUCGGUCUG [Fam1A.1 aminoacylation ribozyme variant]”, the self-aminoacylation came to 9.15 with biotinyl-Phe-oxazolone; 1.01 in the data set with biotinyl-Ile-oxazolone; 1.02 in the data set with biotinyl-Met-oxazolone; 0.869 with biotinyl-Val-oxazolone; 0.903 in the data set on biotinyl-Leu-oxazolone; 5.88 in the data set with biotinyl-Trp-oxazolone.

Consider “AUUACCCUGGAUAUCGAGUGA [Fam2.1 aminoacylation ribozyme variant]”, for which the self-aminoacylation with biotinyl-Phe-oxazolone amounted to 67.3; in the data set on biotinyl-Ile-oxazolone, 4.43; in the data set with biotinyl-Met-oxazolone, 10.5; with biotinyl-Val-oxazolone, 4.88; with biotinyl-Leu-oxazolone, 11.1; with biotinyl-Trp-oxazolone, 12.9.

For the sequence “AAGUUGGCUACUAGUCGCAAG [Fam3.1 aminoacylation ribozyme variant]”, the self-aminoacylation in the data set with biotinyl-Phe-oxazolone is 1.58; in the data set on biotinyl-Ile-oxazolone, 1.65; in the data set on biotinyl-Met-oxazolone it was 1.2; in the data set on biotinyl-Val-oxazolone it was 1.76; in the data set on biotinyl-Leu-oxazolone, 1.86; in the data set on biotinyl-Trp-oxazolone it was 1.42.

In the case of “CCACACUUUAAGCAGUCGGUC [Fam1B.1 aminoacylation ribozyme variant]”, the self-aminoacylation turned out to be 1.16 with biotinyl-Phe-oxazolone; 0.858 with biotinyl-Ile-oxazolone; 0.755 in the data set on biotinyl-Met-oxazolone; 0.946 in the data set with biotinyl-Val-oxazolone; 0.926 with biotinyl-Leu-oxazolone; 0.623 in the data set on biotinyl-Trp-oxazolone.

Take “CUUCUUCUAACAAUCGGUCUG [Fam1A.1 aminoacylation ribozyme variant]”: the self-aminoacylation with biotinyl-Phe-oxazolone is 0.727; in the data set with biotinyl-Ile-oxazolone, 0.732; in the data set with biotinyl-Met-oxazolone, 0.623; in the data set with biotinyl-Val-oxazolone it was 0.729; with biotinyl-Leu-oxazolone, 0.571; in the data set with biotinyl-Trp-oxazolone, 0.581.

In the case of “AUUUACCUAGGUCGUCGGGUG [Fam2.2 aminoacylation ribozyme variant]”, the self-aminoacylation came to 9.82 with biotinyl-Phe-oxazolone; 1.46 with biotinyl-Ile-oxazolone; 1.61 in the data set on biotinyl-Met-oxazolone; 1.82 in the data set with biotinyl-Val-oxazolone; 1.88 with biotinyl-Leu-oxazolone; 0.963 in the data set with biotinyl-Trp-oxazolone.
